The record followed here is patent US20170306033A1 (Amgen, published 2017).

A value given as a limit tells only on which side of the number the result lay.

Assay [1] has as its target T1, human PAC1 receptor (human, UniProt P41586 21-468).
T1 sequence: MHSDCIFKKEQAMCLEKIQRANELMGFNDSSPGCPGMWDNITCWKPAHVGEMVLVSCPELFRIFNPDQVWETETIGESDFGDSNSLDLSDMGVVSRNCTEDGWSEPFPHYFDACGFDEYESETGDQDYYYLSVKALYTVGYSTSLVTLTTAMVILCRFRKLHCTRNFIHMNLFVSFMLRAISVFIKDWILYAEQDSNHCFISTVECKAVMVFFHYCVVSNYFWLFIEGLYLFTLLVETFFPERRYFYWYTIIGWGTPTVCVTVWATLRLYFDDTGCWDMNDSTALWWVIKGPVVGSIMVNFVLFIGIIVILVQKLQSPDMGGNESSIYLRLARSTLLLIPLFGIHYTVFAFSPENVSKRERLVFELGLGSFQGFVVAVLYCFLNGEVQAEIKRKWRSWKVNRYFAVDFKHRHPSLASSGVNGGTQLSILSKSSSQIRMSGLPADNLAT
Briefly: cell-based or functional assay.

Assay [2] deals with human CGRP receptor (human, UniProt Q16602 23-461; O60894 27-148). Briefly: cell-based or functional assay.
Chain of human CGRP receptor (Q16602 23-461 limits assumed, chain 1 of 2): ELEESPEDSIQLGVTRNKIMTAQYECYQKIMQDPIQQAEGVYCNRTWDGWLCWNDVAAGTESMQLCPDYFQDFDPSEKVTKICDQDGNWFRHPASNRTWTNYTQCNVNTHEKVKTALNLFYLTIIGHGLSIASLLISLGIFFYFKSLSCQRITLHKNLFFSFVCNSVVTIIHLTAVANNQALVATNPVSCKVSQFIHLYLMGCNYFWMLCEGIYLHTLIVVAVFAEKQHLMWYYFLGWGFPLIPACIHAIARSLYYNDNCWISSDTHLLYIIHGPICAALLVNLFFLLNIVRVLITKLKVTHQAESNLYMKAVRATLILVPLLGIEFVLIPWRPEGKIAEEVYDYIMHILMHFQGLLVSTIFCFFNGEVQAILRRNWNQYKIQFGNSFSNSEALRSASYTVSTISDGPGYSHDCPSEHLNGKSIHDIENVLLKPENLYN
Chain of human CGRP receptor (O60894 27-148 limits assumed, chain 2 of 2): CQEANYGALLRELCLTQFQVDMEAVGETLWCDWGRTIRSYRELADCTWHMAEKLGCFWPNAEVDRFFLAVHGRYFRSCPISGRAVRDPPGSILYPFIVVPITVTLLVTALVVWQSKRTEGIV

B1: iPS:392529 (bispecific antibody, human IgG1, kappa, lambda, N297G)
light: QSVLTQPPSVSAAPGQKVTISCSGSSSNIGNNYVSWYQQLPGTAPKLLIYDNNKRPSGIPDRFSGSKSGTSTTLGITGLQTGDEADYYCGTWDSRLSAVVFGGGTKLTVLGQPKANPTVTLFPPSSEELQANKATLVCLISDFYPGAVTVAWKADGSPVKAGVETTKPSKQSNNKYAAKSYLSLTPEQWKSHRSYSCQVTHEGSTVEKTVAPTECS
heavy: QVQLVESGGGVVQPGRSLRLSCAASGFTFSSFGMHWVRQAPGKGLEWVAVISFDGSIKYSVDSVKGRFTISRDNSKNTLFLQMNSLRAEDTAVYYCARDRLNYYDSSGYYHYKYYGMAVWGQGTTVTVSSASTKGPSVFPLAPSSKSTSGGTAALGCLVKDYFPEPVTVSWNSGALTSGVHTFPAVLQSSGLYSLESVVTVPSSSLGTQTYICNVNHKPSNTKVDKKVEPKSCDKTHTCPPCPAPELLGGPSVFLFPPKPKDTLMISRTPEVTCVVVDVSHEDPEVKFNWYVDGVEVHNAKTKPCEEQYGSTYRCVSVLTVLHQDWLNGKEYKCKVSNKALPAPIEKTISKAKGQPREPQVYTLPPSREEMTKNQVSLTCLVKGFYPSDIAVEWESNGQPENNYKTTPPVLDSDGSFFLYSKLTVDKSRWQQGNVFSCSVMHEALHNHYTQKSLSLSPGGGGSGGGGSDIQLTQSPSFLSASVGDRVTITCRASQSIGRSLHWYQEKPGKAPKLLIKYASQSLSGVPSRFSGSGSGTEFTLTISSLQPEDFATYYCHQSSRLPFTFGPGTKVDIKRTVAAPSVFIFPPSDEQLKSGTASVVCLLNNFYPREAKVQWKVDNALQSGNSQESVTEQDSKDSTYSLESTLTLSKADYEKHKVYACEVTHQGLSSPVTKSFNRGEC
chain: QVQLVESGAEVVKPGASVKVSCKASGFTFSRFAMHWVRKAPGQGLEWMGVISYDGGNKYYAESVKGRVTMTRDTSTSTLYMELSSLRSEDTAVYYCARGYDVLTGYPDYWGQGTLVTVSSASTKGPSVFPLAPSSKSTSGGTAALGCLVKDYFPEPVTVSWNSGALTSGVHTFPAVLQSSGLYSLKSVVTVPSSSLGTQTYICNVNHKPSNTKVDKKV
For B1, in assay [1], the “Human PAC1 Receptor IC50” value was more than 1000 nM. For the same molecule, the “Human CGRP Receptor IC50” value in assay [2] was 0.56 nM.

B2: iPS:392532 (bispecific antibody, human IgG1, kappa, lambda, N297G)
light: QSVLTQPPSVSAAPGQKVTISCSGSSSNIGNNYVSWYQQLPGTAPKLLIYDNNKRPSGIPDRFSGSKSGTSTTLGITGLQTGDEADYYCGTWDSRLSAVVFGGGTKLTVLGQPKANPTVTLFPPSSEELQANKATLVCLISDFYPGAVTVAWKADGSPVKAGVETTKPSKQSNNKYAAKSYLSLTPEQWKSHRSYSCQVTHEGSTVEKTVAPTECS
heavy: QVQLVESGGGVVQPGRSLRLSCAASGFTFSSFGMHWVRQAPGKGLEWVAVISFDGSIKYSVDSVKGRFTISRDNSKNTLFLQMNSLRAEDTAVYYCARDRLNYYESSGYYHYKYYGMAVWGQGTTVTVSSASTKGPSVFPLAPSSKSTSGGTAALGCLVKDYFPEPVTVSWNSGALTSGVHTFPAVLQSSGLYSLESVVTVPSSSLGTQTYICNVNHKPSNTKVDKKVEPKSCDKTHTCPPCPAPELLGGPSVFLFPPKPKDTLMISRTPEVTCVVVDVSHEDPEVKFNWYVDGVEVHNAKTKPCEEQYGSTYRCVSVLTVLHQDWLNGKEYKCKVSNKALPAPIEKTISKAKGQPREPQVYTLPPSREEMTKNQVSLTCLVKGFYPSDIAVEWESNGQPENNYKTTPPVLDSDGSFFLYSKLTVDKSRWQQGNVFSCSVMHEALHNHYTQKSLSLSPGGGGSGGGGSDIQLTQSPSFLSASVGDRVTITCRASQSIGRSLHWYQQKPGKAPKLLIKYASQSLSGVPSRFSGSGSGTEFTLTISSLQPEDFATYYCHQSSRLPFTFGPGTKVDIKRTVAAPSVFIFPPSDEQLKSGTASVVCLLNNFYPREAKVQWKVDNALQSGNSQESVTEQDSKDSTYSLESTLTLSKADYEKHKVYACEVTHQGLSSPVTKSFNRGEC
chain: QVQLVESGAEVVKPGASVKVSCKASGFTFSRFAMHWVRQAPGQGLEWMGVISYDGGNKYYAESVKGRVTMTRDTSTSTLYMELSSLRSEDTAVYYCARGYDVLTGYPDYWGQGTLVTVSSASTKGPSVFPLAPSSKSTSGGTAALGCLVKDYFPEPVTVSWNSGALTSGVHTFPAVLQSSGLYSLKSVVTVPSSSLGTQTYICNVNHKPSNTKVDKKV
B2: the “Human PAC1 Receptor IC50” value in assay [1] was 352 nM. Besides, in assay [2], the “Human CGRP Receptor IC50” value was determined as 0.51 nM.

B3: iPS:392531 (bispecific antibody, human IgG1, kappa, lambda, N297G)
light: QSVLTQPPSVSAAPGQKVTISCSGSSSNIGNNYVSWYQKLPGTAPKLLIYDNNKRPSGIPDRFSGSKSGTSTTLGITGLQTGDEADYYCGTWDSRLSAVVFGGGTKLTVLGQPKANPTVTLFPPSSEELQANKATLVCLISDFYPGAVTVAWKADGSPVKAGVETTKPSKQSNNKYAAKSYLSLTPEQWKSHRSYSCQVTHEGSTVEKTVAPTECS
heavy: not shown
chain: QVQLVESGAEVVKPGASVKVSCKASGFTFSRFAMHWVRKAPGQGLEWMGVISYDGGNKYYAESVKGRVTMTRDTSTSTLYMELSSLRSEDTAVYYCARGYDVLTGYPDYWGQGTLVTVSSASTKGPSVFPLAPSSKSTSGGTAALGCLVKDYFPEPVTVSWNSGALTSGVHTFPAVLQSSGLYSLKSVVTVPSSSLGTQTYICNVNHKPSNTKVDKKV
For the molecule B3, the “Human PAC1 Receptor IC50” value in assay [1] is more than 1000 nM. Besides, the “Human CGRP Receptor IC50” value in assay [2] is 0.42 nM.

B4: iPS:392530 (bispecific antibody, human IgG1, kappa, lambda, N297G)
light: QSVLTQPPSVSAAPGQKVTISCSGSSSNIGNNYVSWYQKLPGTAPKLLIYDNNKRPSGIPDRFSGSKSGTSTTLGITGLQTGDEADYYCGTWDSRLSAVVFGGGTKLTVLGQPKANPTVTLFPPSSEELQANKATLVCLISDFYPGAVTVAWKADGSPVKAGVETTKPSKQSNNKYAAKSYLSLTPEQWKSHRSYSCQVTHEGSTVEKTVAPTECS
heavy: not shown
chain: QVQLVESGAEVVKPGASVKVSCKASGFTFSRFAMHWVRQAPGQGLEWMGVISYDGGNKYYAESVKGRVTMTRDTSTSTLYMELSSLRSEDTAVYYCARGYDVLTGYPDYWGQGTLVTVSSASTKGPSVFPLAPSSKSTSGGTAALGCLVKDYFPEPVTVSWNSGALTSGVHTFPAVLQSSGLYSLKSVVTVPSSSLGTQTYICNVNHKPSNTKVDKKV
Take B4: the “Human PAC1 Receptor IC50” value in assay [1] was more than 1000 nM. Further, in assay [2], the “Human CGRP Receptor IC50” value turned out to be 0.38 nM.
